Test results taken from the supplement of paper PMC11246515.
± gives the standard deviation of the averaged measurements.

Test: total protein half-life in vivo (active degradation + dilution); higher = more stable protein
[1] = E. coli NCM3722 delta-clpP delta-lon delta-hslV, growth: N-lim chemostat, doubling time 6 h
[2] = E. coli NCM3722 delta-clpP, growth: N-lim chemostat, doubling time 6 h
[3] = E. coli NCM3722 delta-hslV, growth: N-lim chemostat, doubling time 6 h
[4] = E. coli NCM3722 delta-lon, growth: N-lim chemostat, doubling time 6 h
[5] = E. coli NCM3722 delta-smpB, growth: N-lim chemostat, doubling time 6 h
[6] = wild type E. coli NCM3722, growth: C-lim chemostat, doubling time 3 h
[7] = wild type E. coli NCM3722, growth: C-lim chemostat, doubling time 6 h
[8] = wild type E. coli NCM3722, growth: C-lim chemostat, doubling time 12 h
[9] = wild type E. coli NCM3722, growth: N-lim chemostat, doubling time 6 h
[10] = wild type E. coli NCM3722, growth: N-lim chemostat, doubling time 12 h
[11] = wild type E. coli NCM3722, growth: P-lim chemostat, doubling time 6 h
[12] = wild type E. coli NCM3722, growth: P-lim chemostat, doubling time 12 h

Sequence	total protein half-life in vivo [1]	total protein half-life in vivo [2]	total protein half-life in vivo [3]	total protein half-life in vivo [4]	total protein half-life in vivo [5]	total protein half-life in vivo [6]	total protein half-life in vivo [7]	total protein half-life in vivo [8]	total protein half-life in vivo [9]	total protein half-life in vivo [10]	total protein half-life in vivo [11]	total protein half-life in vivo [12]
MKTLGEFIVEKQHEFSHATGELTALLSAIKLGAKIIHRDINKAGLVDILGASGAENVQGEVQQKLDLFANEKLKAALKARDIVAGIASEEEDEIVVFEGCEHAKYVVLMDPLDGSSNIDVNVSVGTIFSIYRRVTPVGTPVTEEDFLQPGNKQVAAGYVVYGSSTMLVYTTGCGVHAFTYDPSLGVFCLCQERMRFPEKGKTYSINEGNYIKFPNGVKKYIKFCQEEDKSTNRPYTSRYIGSLVADFHRNLLKGGIYLYPSTASHPDGKLRLLYECNPMAFLAEQAGGKASDGKERILDIIPETLHQRRSFFVGNDHMVEDVERFIREFPDA [P0A993]	4.22 ± 0.099 h	3.02 ± 0.088 h	3.76 ± 0.66 h	3.84 ± 0.51 h	3.21 ± 0.12 h	2.93 ± 0.38 h	5.02 ± 0.3 h	8.6 ± 0.59 h	3.19 ± 0.06 h	4.68 ± 0.09 h	5.796 ± 0.011 h	10.6 ± 0.24 h
MKTLIARHKAGEHIGICSVCSAHPLVIEAALAFDRNSTRKVLIEATSNQVNQFGGYTGMTPADFREFVFTIADKVGFARERIILGGDHLGPNCWQQENADAAMEKSVELVKEYVRAGFSKIHLDASMSCAGDPIPLAPETVAERAAVLCFAAESVATDCQREQLSYVIGTEVPVPGGEASAIQSVHITHVEDAANTLRTHQKAFIARGLTEALTRVIAIVVQPGVEFDHSNIIHYQPQEAQPLAQWIENTRMVYEAHSTDYQTRTAYWELVRDHFAILKVGPALTFALREAIFALAQIEQELIAPENRSGCLAVIEEVMLDEPQYWKKYYRTGFNDSLLDIRYSLSDRIRYYWPHSRIKNSVETMMVNLEGVDIPLGMISQYLPKQFERIQSGELSAIPHQLIMDKIYDVLRAYRYGCAE [P0C8J8]	5.59 h	–	–	–	–	–	2.97 h	–	> 8 h	–	–	–
MKTLILFSTRDGQTREIASYLASELKELGIQADVANVHRIEEPQWENYDRVVIGASIRYGHYHSAFQEFVKKHATRLNSMPSAFYSVNLVARKPEKRTPQTNSYARKFLMNSQWRPDRCAVIAGALRYPRYRWYDRFMIKLIMKMSGGETDTRKEVVYTDWEQVANFAREIAHLTDKPTLK [P0ACB4]	6.5 ± 0.98 h	6.1 ± 0.4 h	6.54 ± 0.68 h	6.2 ± 0.14 h	5.74 ± 0.11 h	3.05 ± 0.23 h	5.733 ± 0.054 h	9.62 ± 0.39 h	5.4517 ± 0.0046 h	11.18 ± 0.03 h	5.69 ± 0.12 h	11.9 ± 0.72 h
MKTNIKVFTSTGELTTLGRELGKGGEGAVYDIEEFVDSVAKIYHTPPPALKQDKLAFMAATADAQLLNYVAWPQATLHGGRGGKVIGFMMPKVSGKEPIHMIYSPAHRRQSYPHCAWDFLLYVARNIASSFATVHEHGHVVGDVNQNSFMVGRDSKVVLIDSDSFQINANGTLHLCEVGVSHFTPPELQTLPSFVGFERTENHDNFGLALLIFHVLFGGRHPYSGVPLISDAGNALETDITHFRYAYASDNQRRGLKPPPRSIPLSMLPSDVEAMFQQAFTESGVATGRPTAKAWVAALDSLRQQLKKCIVSAMHVYPAHLTDCPWCALDNQGVIYFIDLGEEVITTGGNFVLAKVWAMVMASVAPPALQLPLPDHFQPTGRPLPLGLLRREYIILLEIALSALSLLLCGLQAEPRYIILVPVLAAIWIIGSLTSKAYKAEVQQRREAFNRAKMDYDHLVRQIQQVGGLEGFIAKRTMLEKMKDEILGLPEEEKRALAALHDTARERQKQKFLEGFFIDVASIPGVGPARKAALRSFGIETAADVTRRGVKQVKGFGDHLTQAVIDWKASCERRFVFRPNEAITPADRQAVMAKMTAKRHRLESALTVGATELQRFRLHAPARTMPLMEPLRQAAEKLAQAQADLSRC	4.54 h	4.86 h	–	–	–	–	–	–	–	–	–	–
MKTRIHVVQGDITKLAVDVIVNAANPSLMGGGGVDGAIHRAAGPALLDACLKVRQQQGDCPTGHAVITLAGDLPAKAVVHTVGPVWRGGEQNEDQLLQDAYLNSLRLVAANSYTSVAFPAISTGVYGYPRAAAAEIAVKTVSEFITRHALPEQVYFVCYDEENAHLYERLLTQQGDE [P0A8D6]	–	4.32 ± 0.98 h	4.02 ± 0.17 h	4.294 ± 0.033 h	3.89 ± 0.28 h	–	5.89 ± 0.66 h	9.58 ± 0.72 h	4.63 ± 0.32 h	6.81 ± 0.32 h	5.95 ± 0.57 h	12 ± 0.23 h
MKTSRLPIAIQQAVMRRLREKLAQANLKLGRNYPEPKLSYTQRGTSAGTAWLESYEIRLNPVLLLENSEAFIEEVVPHELAHLLVWKHFGRVAPHGKEWKWMMENVLGVPARRTHQFELQSVRRNTFPYRCKCQEHQLTVRRHNRVVRGEAVYRCVHCGEQLVAK	4.81 ± 0.12 h	–	–	–	–	–	–	5.52 h	–	–	–	–
MKVDIDTSDKLYADAWLGFKGTDWKNEINVRDFIQHNYTPYEGDESFLAEATPATTELWEKVMEGIRIENATHAPVDFDTNIATTITAHDAGYINQPLEKIVGLQTDAPLKRALHPFGGINMIKSSFHAYGREMDSEFEYLFTDLRKTHNQGVFDVYSPDMLRCRKSGVLTGLPDGYGRGRIIGDYRRVALYGISYLVRERELQFADLQSRLEKGEDLEATIRLREELAEHRHALLQIQEMAAKYGFDISRPAQNAQEAVQWLYFAYLAAVKSQNGGAMSLGRTASFLDIYIERDFKAGVLNEQQAQELIDHFIMKIRMVRFLRTPEFDSLFSGDPIWATEVIGGMGLDGRTLVTKNSFRYLHTLHTMGPAPEPNLTILWSEELPIAFKKYAAQVSIVTSSLQYENDDLMRTDFNSDDYAIACCVSPMVIGKQMQFFGARANLAKTLLYAINGGVDEKLKIQVGPKTAPLMDDVLDYDKVMDSLDHFMDWLAVQYISALNIIHYMHDKYSYEASLMALHDRDVYRTMACGIAGLSVATDSLSAIKYARVKPIRDENGLAVDFEIDGEYPQYGNNDERVDSIACDLVERFMKKIKALPTYRNAVPTQSILTITSNVVYGQKTGNTPDGRRAGTPFAPGANPMHGRDRKGAVASLTSVAKLPFTYAKDGISYTFSIVPAALGKEDPVRKTNLVGLLDGYFHHEADVEGGQHLNVNVMNREMLLDAIEHPEKYPNLTIRVSGYAVRFNALTREQQQDVISRTFTQAL	4.15 h	–	–	–	1.87 ± 0.4 h	2.12 ± 0.2 h	2.56 ± 0.43 h	3.63 ± 1.1 h	1.88 h	3.13 h	3.24 h	6.82 ± 0.17 h
MKVGFIGLGIMGKPMSKNLLKAGYSLVVADRNPEAIADVIAAGAETASTAKAIAEQCDVIITMLPNSPHVKEVALGENGIIEGAKPGTVLIDMSSIAPLASREISEALKAKGIDMLDAPVSGGEPKAIDGTLSVMVGGDKAIFDKYYDLMKAMAGSVVHTGEIGAGNVTKLANQVIVALNIAAMSEALTLATKAGVNPDLVYQAIRGGLAGSTVLDAKAPMVMDRNFKPGFRIDLHIKDLANALDTSHGVGAQLPLTAAVMEMMQALRADGLGTADHSALACYYEKLAKVEVTR [P0ABQ2]	3.86 ± 0.51 h	3.02 ± 0.079 h	3.5 ± 0.65 h	3.57 ± 0.23 h	2.9 ± 0.15 h	2.9 ± 0.065 h	5.47 ± 0.28 h	9.56 ± 1 h	3.13 ± 0.46 h	4.13 ± 0.28 h	5.31 ± 0.075 h	10.3 ± 0.15 h
